In one test the test system is MEC monolayers. Kind of test: FITC Transwell permeability assay. In kind it is cell-based, human. The settings on record: each agent alone. The protocol:
The integrity of these junctions is also important for the regulation of monolayer permeability by controlling the size of intercellular openings. The effect of the AXT107 on EC permeability was further investigated by the transendothelial diffusion of FITC-labeled dextran across MEC monolayers seeded onto permeable Transwell® substrates.
Transwell, twenty-four-well inserts (Corning) were coated with 7.5 μg/cm^2 FN1 for two hours at 37° C., aspirated, and then dried for thirty minutes at room temperature. Wells were then seeded with 7.5×10^4 MECs in 100 μl of EBM-2 media (without phenol red) and allowed to settle for thirty minutes at room temperature. 1 ml of EGM-2 media was then added to the bottom chamber and an additional 200 μl to the top chamber. The plate was incubated for twenty-four hours at 37° C. after which the media was aspirated and an additional 7.5×10^4 MECs were plated in each well as described above. After forty-eight hours at 37° C., the media was aspirated from both chambers and the cells were washed twice in dPBS containing Ca^2+ and Mg^2+, once with EBM-2 media (without phenol red) and serum starved in EBM-2 media applied to both chambers for two hours at 37° C. After this incubation, 100 μM AXT107 or an equivalent amount of DMSO vehicle was added and incubated for an additional ninety minutes. In the top chamber, the cells were then treated with 200 ng/ml Ang2, 100 ng/ml VEGFA, both, or PBS control and in the bottom chamber, the cells were then treated with 25 μg/ml FITC-Dextran (40 kDa MW). AXT107 was also added in both chambers to maintain a concentration of 100 μM. After three hours, 10 μl was removed from the top chamber of each well and mixed with 90 μl of water in a clear bottom, 96-well plate. Fluorescence values for each sample were calculated using a Perkin Elmer plate reader.

Another test concerns Tie2. Kind of test: Western blot of phospho-Tie2 (Y992) in MEC monolayers treated with AXT107 and angiopoietin. Type of test: cell-based, human. The note with it: ligand alone, no AXT107. On the procedure:
A confluent monolayer of human microvascular endothelial cells (HMEC) was serum starved with EBM-2 overnight. After a 90 min treatment with AXT107 at concentrations of 0, 10, 32, and 100 μM, the cells were treated for 15 min with 1 mM sodium orthovanadate. Next the cells were treated with Angiopoietin-2 (Ang-2) at 200 ng/mL for 15 min. Following cell lysis, the lysates were immunoblotted for pTie2 (Y992), pSTAT3 (Y705), and pAkt (S473).
To investigate the effects of the integrin inhibitor AXT107 on Tie2 signaling, confluent monolayers of microvascular endothelial cells (MECs) on fibronectin-coated dishes were treated with various concentrations of AXT107 followed by exposure to the Tie2 ligands Ang1 or Ang2.
For Ang1/2 signaling investigations, cell culture dishes (10 cm diameter) were coated with 5 μg/ml fibronectin (FN1; Sigma-Aldrich, St. Louis, Mo.) for two hours at 37° C. The FN1 solution was then removed by aspiration and 5×10^6 microvascular endothelial cells (MECs; Lonza, Walkersville, Md.) were plated in EGM-2MV media (Lonza) and cultured for forty-eight hours at 37° C. The cells were then serum starved for sixteen hours in serum-free EGM-2 base media (Lonza). AXT107 (0-100 μM, as indicated) was subsequently added to each culture and incubated for seventy-five minutes at 37° C. The cultures were then treated with 1 mM sodium vanadate (New England Biolabs, Ipswich, Mass.) for fifteen minutes to enhance the phospho-Tie2 signal followed by stimulation with 200 ng/ml angiopoietin (R&D Systems, Minneapolis, Minn.) for an additional fifteen minutes. The cells were then transferred to ice, washed twice with ice cold Dulbecco's phosphate-buffered saline (dPBS) containing Ca^2+ and Mg^2+, and collected by scraping in 500 μl of 1×Blue Loading Buffer (Cell Signaling, Danvers, Mass.). Lysate samples were then sonicated, boiled, and resolved by SDS-PAGE. Specific proteins were identified by Western blot, using the following primary antibodies: Cell Signaling—phospho-Tie2 (Y992) (Cat#: 4221), Tie2 (Cat#: 7403), phospho-Stat3 (Y705) (Cat#: 4113), Stat3 (Cat#: 4904), phospho-Akt (S473) (Cat#: 4058), Akt (Cat#: 9272), phospho-p44/42 MAPK (T202/Y204) (Cat#: 4370), p44/42 MAPK (Cat#: 4695); BD Transduction Laboratories—β1 integrin (Cat#: 610467); Millipore—α5 integrin (Cat#: AB1928) and detected with HRP-conjugated goat anti-rabbit and sheep anti-mouse secondary antibodies (GE healthcare).

These results are taken from patent US20190225670A1, “COMPOUNDS AND METHODS FOR ACTIVATING TIE2 SIGNALING” (ASCLEPIX THERAPEUTICS, LLC, priority 2016, published 2019).

On to VEGF, for which the “FITC-dextran diffusion across the monolayer, single treatment” value in the test on MEC monolayers was “appeared to increase permeability (although non-significantly)”.

B1: Ang1: Tie2 ligand; binds Tie2 and stimulates phosphorylation and downstream signaling (protein)
chain: SNQRRSPENSGRRYNRIQHGQCAYTFILPEHDGNCRESTTDQYNTNALQRDAPHVEPDFSSQKLQHLEHVMENYTQWLQKLENYIVENMKSEMAQIQQNAVQNHTATMLEIGTSLLSQTAEQTRKLTDVETQVLNQTSRLEIQLLENSLSTYKLEKQLLQQTNEILKIHEKNSLLEHKILEMEGKHKEELDTLKEEKENLQGLVTRQTYIIQELEKQLNRATTNNSVLQKQQLELMDTVHNLVNLCTKEGVLLKGGKREEEKPFRDCADVYQAGFNKSGIYTIYINNMPEPKKVFCNMDVNGGGWTVIQHREDGSLDFQRGWKEYKMGFGNPSGEYWLGNEFIFAITSQRQYMLRIELMDWEGNRAYSQYDRFHIGNEKQNYRLYLKGHTGTAGKQSSLILHGADFSTKDADNDNCMCKCALMLTGGWWFDACGPSNLNGMFYTAGQNHGKLNGIKWHYFKGPSYSLRSTTMMIRPLDF
Turning to B1, the “Tie2 phosphorylation by ligand alone” value with Tie2 is recorded as “induced phosphorylation”.

B2: Ang2: Tie2 ligand; endogenous Tie2 antagonist and weak agonist (protein)
chain: YNNFRKSMDSIGKKQYQVQHGSCSYTFLLPEMDNCRSSSSPYVSNAVQRDAPLEYDDSVQRLQVLENIMENNTQWLMKLENYIQDNMKKEMVEIQQNAVQNQTAVMIEIGTNLLNQTAEQTRKLTDVEAQVLNQTTRLELQLLEHSLSTNKLEKQILDQTSEINKLQDKNSFLEKKVLAMEDKHIIQLQSIKEEKDQLQVLVSKQNSIIEELEKKIVTATVNNSVLQKQQHDLMETVNNLLTMMSTSNSAKDPTVAKEEQISFRDCAEVFKSGHTTNGIYTLTFPNSTEEIKAYCDMEAGGGGWTIIQRREDGSVDFQRTWKEYKVGFGNPSGEYWLGNEFVSQLTNQQRYVLKIHLKDWEGNEAYSLYEHFYLSSEELNYRIHLKGLTGTAGKISSISQPGNDFSTKDGDNDKCICKCSQMLTGGWWFDACGPSNLNGMYYPQRQNTNKFNGIKWYYWKGSGYSLKATTMMIRPADF
Take B2: the “FITC-dextran diffusion across the monolayer, single treatment” value in the test with MEC monolayers is given as “influenced FITC-dextran diffusion across the monolayer”. For the same molecule, the “Tie2 phosphorylation by ligand alone” value in the test on Tie2 is listed as “insignificant effects”.
